Residue numbers refer to the chain shown, from its start.
B1: MLC021: unconjugated GLP-1/GDF15 fusion protein, linker of at least 80 residues (protein)
chain: HGEGTFTSDVSSYLEEQAAKEFIAWLVRGGGGQEPGAQPGQEPGAQPGQEPGAQPGQEPGAQPGQEPGAQPGQEPGAQPGAQPGAQPGAQPGAQPGAQPGAQPGAQPGAQPARQGDHCPLGPGRCCRLHTVRASLEDLGWADWVLSPREVQVTMCIGACPSQFRAANLHAQIKTSLHRLKPDTVPAPCCVPASYNPMVLIQKTDTGVSLQTYDDLLAKDCHCI
B2: MLC047: fusion polypeptide SEQ ID NO: 330 conjugated with Moiety A at 40K of linker (conjugate)
chain: B1 chain with K20R, P71K, K180R, K202R, K218R

Columns and labels:
[1] = Additive or synergistic effect: body weight and food intake in C57BL/6 mice, 30 nmol/kg daily sc 10 days; type: in vivo; settings: versus negative controls MLC096 and MLC097
Experimental: FIGS. 7A-7B show In vivo efficacy in C57 lean mice. To evaluate the body weight and food intake effects of the fusion proteins, 10 week old male C57BL/6J mice were dosed everyday subcutaneously with 30 nmol/kg protein for 10 days. Food intake and body weight were measured daily. […] Data are expressed as mean values and standard error (SEM) for FIG. 7A. n=5 for each treatment group. For FIG. 7B, a pooled food intake was measured for each treatment group.
10 week old male C57BL/6 mice were injected everyday subcutaneously with 30 nmol/kg of the unconjugated fusion proteins (i.e., MLC096, MLC097 and MLCO21) for 10 days. Food intake and body weight were measured daily and five animals were used for each treatment group. Body weight (BW) was monitored for each individual animal, but food intake for each group animals was measured together. Day 1 and Day 10 are first day and last day of molecule dosage. % BW loss=100*(BW on Day n-BW on Day 1)/(BW on Day 1). Cumulative food intake on Day n represents sum of food intake from Day 1 to Day n. Data are indicated as mean values and standard error (SEM) or pooled values. Statistical analysis was performed by One-way ANOVA.
As discussed above, MLC096 and MLC097 were used as negative controls, as they contained known inactivating mutation in GDF15 or GLP-1.

[2] = Body weight and food intake in C57BL/6 mice, unconjugated fusion proteins, 30 nmol/kg daily 10 days; type: in vivo
Experimental: 10 week old male C57BL/6 mice were injected everyday subcutaneously with 15 nmol/kg of the fusion protein conjugates (i.e., MLC002, MLC 004, MLC 005, MLC 006, MLC 007, MLC 008, and MLC 009) for 14 days. Food intake and body weight were measured daily and five animals were used for each treatment group. Body weight (BW) was monitored for each individual animal, but food intake for each group animals was measured together. Day 1 and Day 14 are first day and last day of molecule dosage. % BW loss=100*(BW on Day n-BW on Day 1)/(BW on Day 1). Cumulative food intake on Day n represents sum of food intake from Day 1 to Day n. Data are indicated as mean values and standard error (SEM) or pooled values. Statistical analysis was performed by One-way ANOVA. Body weight reduction on Day 11 is calculated by −1*(% BW loss−% BW loss of vehicle group); Cumulative food intake reduction is calculated by −100*(cumulative food intake-cumulative food intake of vehicle)/cumulative food intake of vehicle.
As described in the above method, a daily dose of 30 nmol/kg of the unconjugated fusion proteins (i.e., MLC100, MLC023, MLC022, MLC020, MLC003, MLC124, MLC021, MLC019, MLC102) were administered to C57BL/6 for 10 days. Data were calculated as above method. Day 1 and Day 10 are first day and last day of administration.

[3] = Body weight and food intake in C57BL/6 mice, fusion protein conjugates, 30 nmol/kg daily 10 days; type: in vivo
Procedure, shortened: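 Male C57BL/6 mice received fusion protein conjugates by daily subcutaneous injection, with dosing running from Day 1 to Day 10. Body weight was recorded daily per animal and food intake daily per group. Body weight reduction was expressed relative to vehicle percent loss from Day 1. Cumulative food intake reduction was expressed as percent decrease versus vehicle.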

[4] = mouse, in vivo, sc, 30 nmol/kg
[5] = cynomolgus monkey, in vivo, sc, 5 nmol/kg
Experimental: (§2) Plasma samples were collected pre-dose (−5 min), 2 hr, 4 hr, 6 hr, 8 hr, 24 hr, 48 hr, 72 hr, 96 hr, 120 hr, 144 hr, 216 hr, 288 hr, 360 hr, 432 hr and 504 hr after the injection. The concentrations of the fusion protein conjugates in the plasma were measured by an ELISA assay which has immunoreactivity towards both GDF15 and intact N-terminal of GLP-1. Based on the graph showing plasma concentration of each protein versus time after subcutaneous injection, the pharmacokinetic parameters (including Tmax, Cmax, T1/2, AUC) were calculated by WinNonlin software.

[6] = Efficacy in db/db mice: body weight, food intake, glucose, biomarkers, daily sc 14 days; type: in vivo
Experimental: (§1) FIGS. 4A-4D show In vivo efficacy in db/db mice. To evaluate the body weight, food intake and glucose effects of the fusion proteins, 8 week old male db/db mice were dosed everyday subcutaneously with 30 nmol/kg protein for 14 days. […] Compared to Vehicle control: ***, p<0.001. Data are expressed as mean values and standard error (SEM) for FIGS. 4A, 4B and 4D. n=5 for each treatment group. For FIG. 4C, a pooled food intake was measured for each treatment group.
FIGS. 5A-5F show In vivo efficacy in db/db mice. To evaluate the body weight, food intake and glucose effects of the fusion proteins, 8 week old male db/db mice were dosed everyday subcutaneously with different concentrations of proteins for 14 days. FIGS. 5A and 5B show body weight loss upon protein treatments from Day1 to Day15. […] Compared to Vehicle control: ***, p<0.001; **, p<0.01; *, p<0.05; ns, non-statistically significant; FIGS. 5D and 5E show cumulative food intake with protein treatments from Day1 to Day15. […] Compared to Vehicle control: ***, p<0.001**, p<0.01; *, p<0.05; ns, non-statistically significant. Data are expressed as mean values and standard error (SEM) for FIGS. 5A, 5B, 5C and 5F. n=5 for each treatment group. For FIGS. 5D and 5E, a pooled food intake was measured for each treatment group.
as §1, with “8A-8I” for “4A-4D”, “different concentrations of proteins” for “30 nmol/kg protein”, “FIGS. 8D-8F show body weight loss upon dose titrations of fusion protein conjugates. […]” for “Compared to Vehicle control: ***, p<0.001.”, “8A” for “4A, 4B”, “8C-I.” for “4D.”, “8B,” for “4C,”
Selected fusion protein conjugates are assessed in disease animal models (DIO mice, db/db mice, etc.) to determine body weight, food intake, glucose efficacy with dose responses. Some biomarkers are also measured, including fasting insulin, plasma triglyceride, cholesterol, liver triglyceride, and inflammatory biomarkers (ALT, AST and CRP).
8 week old male db/db mice were injected everyday subcutaneously with designated proteins for 14 days. Age matched lean mice were used as control. Food intake and body weight were measured daily and five animals were used for each treatment group. Fasting glucose were tested on designated days as shown in each figure. Body weight was monitored for each individual animal, but food intake for each group animals was measured together. Day 1 and Day 14 are first day and last day of molecule dosage. % BW loss=100*(BW on Day n-BW on Day 1)/(BW on Day 1). Cumulative food intake on Day n represents sum of food intake from Day 1 to Day n. Terminal blood was collected and EDTA-2K plasma was prepared and frozen at −80° C. for biomarker measurement. Liver was also collected and frozen in liquid nitrogen and store at −80° C. Data are indicated as mean values and standard error (SEM) or pooled values. Statistical analysis was performed by One-way ANOVA.

[7] = Pharmacokinetic measurement in mouse, single sc dose 30 nmol/kg, plasma ELISA; settings: single sc dose 30 nmol/kg
[8] = PK study in non-human primates, single sc dose 5 nmol/kg, plasma ELISA; settings: monkey, single sc dose 5 nmol/kg
Experimental: as §2

[9] = C57 mice, 30 nmol/kg daily, Day11, unconjugated fusion proteins
[10] = 30 nmol/kg, FIG. 5A-E, versus Semaglutide, Tirzepatide and MLC014

Molecule | body weight reduction efficacy [1] | food intake [1] | Body weight reduction at 30 nmol/kg (% reduction compared to vehicle)(Day11) [2, 9] [%] | Cumulative food intake reduction at 30 nmol/kg (% reduction compared to vehicle)(Day11) [2, 9] [%] | in vivo efficacy (food intake and body weight reduction) ([2]; unconjugated fusion proteins, 30 nmol/kg daily 10 days, by linker length) | Body weight reduction at 30 nmol/kg (% reduction compared to vehicle)(Day11) [3] [%] | Cumulative food intake reduction at 30 nmol/kg (% reduction compared to vehicle)(Day11) [3] [%] | AUC0-24 h [4] [µM·h] | Cmax [4] [nM] | Terminal t1/2 [4] [h] | AUC0-96 h [5] [µM·h] | body weight loss [6, 10] | food intake suppression [6, 10] | efficacy ([6]; FIG. 5 study) | Tmax [7] [h] | Tmax [8] [h]
B1 | much better body weight reduction efficacy | decreased food intake | 22.1 | 48.7 | the most significant results among all the tested fusion proteins | – | – | – | – | – | – | – | – | – | – | –
B2 | – | – | – | – | – | 24.7 | 51.2 | 1.2468 | 71.9 | 9.3 | 1.541 | sustainable and much better effect | sustainable and much better effect | better efficacy than Semaglutide and GDF15 derivative (MLC014) | 10.7 | 16
